Where no end group is shown, it is not given here.
B1: aSyn (61–95) BiFC fusion: aSyn residues 61–95, 17-residue linker, N-terminal or C-terminal fragment of Venus (domain or fragment)
chain: not shown
notes: alpha-synuclein (aSyn), residues 61-95, the non-amyloid-B component (NAC) region, 35 amino acids; 17-amino acid linker between the protein of interest and the Venus fragment; One molecule stands for both constructs, aSVN (Venus 1-173) and aSVC (Venus 155-239); the label in each row tells which was used; A start methionine and residues coded by the restriction sites are not described; also called …
B2: IAPP BiFC fusion: human IAPP, 17-residue linker, N-terminal or C-terminal fragment of Venus (peptide)
chain: KCNTATCATQRLANFLVHSSNNFGAILSSTNVGSNTYRPACKIPNDLKQKVMNH
modifications: cysteine pairing not given here; also: fused to N- or C-terminal Venus fragment, not in chain
notes: human islet amyloid polypeptide (IAPP), the 37-amino acid long peptide cut from proIAPP; 17-amino acid linker between the protein of interest and the Venus fragment; One molecule stands for both constructs, IVN (Venus 1-173) and IVC (Venus 155-239); the label in each row tells which was used; a start methionine is not described; also called IVN; IVC; source: HEK293, transfected (pcDNA3.1 zeo+), …

Target: the molecule itself
Assay: split reporter (BiFC, NanoBiT); BiFC with split Venus in transfected HEK293 cells; percent of fluorescent cells by flow cytometry (Accuri C6 plus) 24 h after transfection

Row | Protein | percent of cells with a fluorescent BiFC signal [%]
1 | B1 | 29.3
2 | B2 | 19.7
